Columns and labels:
[1] = molecular target: human BCMA on cells (endogenous on multiple myeloma cell lines; stably transfected 293T-hBCMA) (human) (UniProt Q02223); experiment: flow cytometry, 293T-hBCMA cells
[2] = molecular target: human BCMA on cells (endogenous on multiple myeloma cell lines; stably transfected 293T-hBCMA) (human) (UniProt Q02223); experiment: cell-based or functional assay
[3] = molecular target: cynomolgus BCMA on stably transfected 293T cells (cynomolgus monkey); experiment: flow cytometry, 293T-cBCMA cells
Sequence of cynomolgus BCMA on stably transfected 293T cells (cynomolgus monkey) (Q02223 other isoform, or with tags, fused parts or gaps): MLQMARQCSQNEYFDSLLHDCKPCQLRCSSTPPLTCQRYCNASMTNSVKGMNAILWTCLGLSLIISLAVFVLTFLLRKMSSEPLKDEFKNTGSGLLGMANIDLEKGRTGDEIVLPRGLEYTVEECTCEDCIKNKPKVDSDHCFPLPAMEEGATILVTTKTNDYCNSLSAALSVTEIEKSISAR

[4] = molecular target: Recombinant human BCMA ECD protein (Acro Biosystems) (human) (UniProt Q02223); experiment: competition ELISA on coated human BCMA ECD, competitor BAFF at 1 ng/ml, Experiment No. 1
Sequence of Recombinant human BCMA ECD protein (Acro Biosystems) (human) (Q02223 1-54 limits assumed): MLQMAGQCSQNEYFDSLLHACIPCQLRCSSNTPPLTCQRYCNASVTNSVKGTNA

[5] = molecular target: human BCMA on cells (endogenous on multiple myeloma cell lines; stably transfected 293T-hBCMA) (human) (UniProt Q02223); experiment: flow cytometry, ARP-1 cells

Sequence of human BCMA on cells (endogenous on multiple myeloma cell lines; stably transfected 293T-hBCMA) (human) (Q02223 whole entry): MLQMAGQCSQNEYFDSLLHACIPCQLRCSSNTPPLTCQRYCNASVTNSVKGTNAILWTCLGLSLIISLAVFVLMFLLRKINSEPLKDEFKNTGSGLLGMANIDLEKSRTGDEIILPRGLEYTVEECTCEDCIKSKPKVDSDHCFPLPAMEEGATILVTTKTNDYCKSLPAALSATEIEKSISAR

Work on “Conjugate 1: anti-BCMA antibody J6M0 conjugated to maleimido-caproyl monomethyl auristatin F (mc-MMAF), surrogate ADC for GSK2857916” yielded a Bmax [1] of 856 MFI, a cell killing EC50, ARP-1 [2] of 520 pM and a cell killing EC50, ARP-1, no competing reagent [2] of 600 pM. For the same substance, the cell killing EC50, MM.1S [2] was 680 pM, the cell killing EC50, NCI-H929 [2] was 290 pM and the cell killing EC50, NCI-H929, Experiment 1 [2] was 200 pM. It also gave a cell killing EC50, NCI-H929, Experiment 2 [2] of 200 pM, a cell killing EC50, NCI-H929, no competing reagent [2] of 400 pM and a cell killing EC50, OPM2, Experiment 1 [2] of 800 pM. For the same substance, the cell killing EC50, OPM2, Experiment 2 [2] was 900 pM, the cell killing EC50, OPM2, no competing reagent [2] was 2300 pM and the cell killing EC50, OPM-2 [2] was 1400 pM. It also gave a cell killing EC50, U266B1 [2] of 320 pM, a cell killing EC50, U266B1, Experiment 1 [2] of 200 pM and a cell killing EC50, U266B1, Experiment 2 [2] of 300 pM. The cell killing EC50, U266B1, no competing reagent [2] was 400 pM, the cell killing Span, ARP-1 [2] was 95% and the cell killing Span, ARP-1, no competing reagent [2] was 97%. The cell killing Span, MM.1S [2] was 86%, the cell killing Span, NCI-H929 [2] was 91% and the cell killing Span, NCI-H929, Experiment 1 [2] was 85%. The cell killing Span, NCI-H929, Experiment 2 [2] was 86%, the cell killing Span, NCI-H929, no competing reagent [2] was 86% and the cell killing Span, OPM2, Experiment 1 [2] was 95%. It also gave a cell killing Span, OPM2, Experiment 2 [2] of 94%, a cell killing Span, OPM2, no competing reagent [2] of 92% and a cell killing Span, OPM-2 [2] of 93%. The cell killing Span, RPMI-8226 [2] was 40%, the cell killing Span, U266B1 [2] was 90% and the cell killing Span, U266B1, Experiment 1 [2] was 85%. It also gave a cell killing Span, U266B1, Experiment 2 [2] of 84%, a cell killing Span, U266B1, no competing reagent [2] of 90% and a Bmax [3] of 981 MFI. The Kd [3] was 8600 pM, the IC50 [4] was 7000 pM and the Bmax [5] was 45 MFI. It also gave a Kd [5] of 2400 pM.
